Assay results: the DeepSol protein solubility set

Assay: soluble on expression in E. coli; label from the status in PepcDB or PDB records

Sequence	soluble on expression in E. coli
GPGSMASHAEGRLLRRSVPYVESWIAELTPKPVAPAAGAAPAPKGKAKGGTASTGTENATPMSRCCFAVGKVLEVSRHPESEKLYIEKIDLGAELNMLSNNEPRTILSGLQEFVKEEDFVNRLVLVIANLEPRKIGGIPSAGMVLCASTGEDPHDPASAGQGERKVVLLDIPEGTAVGERVVFEGHDMPYEPVLKKKLAKNFEEVMKDVRSSADGEVCWQGKPFQTSAGVIKASLCNARIS	soluble
MSIKSDSRHLYLQVIDRIKRDIETGVYKEKQKLPSEFELAKQLGVSRATLREALRVLEEENIIIRRHGVGTFVNARPLFTSGIEQLSSVTDMIRQAGRKPGTIFLSSSIQQPTEDDMRRFQCRPDENLLLIERVRTADGEPVVYCLDKILCKYLPKGISYEHESLFENLHNQTHRDIAYAVARIVPLGYHEKVSPILQCDPETALLVLKQMHFDKNDEPIFYSVNYFRSDKFSFHVMRKRFSF	not soluble
MINKIFALPVIEQLTPVLSRRQLDDLDLIVVDHPQVKASFALQGAHLLSWKPVGEEEVLWLSNNTPFKTGVALRGGVPICWPWFGPAAQQGLPSHGFARNLPWALKAHNEDDNGVMLTFELQSSEATRKYWPHDFTLLARFKVGKTCEIELEAHGEFATTSALHSYFNVGDIANVKVSGLGDRFIDKVNDAKEGVLTDGIQTFPDRTDRVYLNPEACSVIHDATLNRTIDVVHHHHLNVVGWNPGPALSVSMGDMPDDGYKTFVCVETVYATAPQQATEEKPSRLAQTICVAKR	not soluble
MGSDKIHHHHHHMSTDNLALNIREKAMEAGFDHCGIVKIDALADYVSRLEERAAAFPRSKPFYDFLSKLGTPQAAHEWGKSVIVCAMRYGKYRIPNRADRHIGKLYLYGGYRQPAYSQEYAGMAGFEAFLAAEGIRFAKDVFGIAPARLCAAQANLGVIRNNNFLYTEHGSWVWLETWLIDRELEYRESPNTLPSCPPGCSKCIDACPTGALKAPFLTDMGTCIARLTYSPSGEAPEPLRESMGTWLYGCDECQNACPMNKGRWEEKEEYPRLEELSRHISLEKIAEMDEHAVSDILSPMFWIIGKEKLWMWKCNVIRAMVNGKDPGHHSTIRKLCDDGNENVRRTAEWACRQLGI	not soluble
MKKGLTFSITSAALFFGMNHVASADQIHTVKEDAKLTDIAQTFATTTTEIQNLNHLQNRDYVQVGETIVLPDSDIVEVKDGDTIKAIAERHQMTMNQLYQLNPNLGEVIYPGQLVAVSEKGSAHLNNQLQQIFNSHEAVQPTAQINDDERNKAENNTIRNVRTSGNITPSATQTWQNNDYSASDRQQVSNTTANEQVTSNYQYSPVSHASNGSNYYDWGQCTYYAFDRRQQLGKSVGNLWGNANNWASAAQQSGYQVNNTPEVGAIFQSTAGNYGHVGVVESKNADGSIVVSEMNWQGVGQKSYRTIHNTGQYNYIHLEHHHHHH	not soluble
MARDGAVYACQSCGAVQTKWSGQCSACQSWNTLVEEVSAKPPGALSATKATRVRGLQFTGLESETAPPPRILTGVDEFDRVCGGGVVPGSALLIGGDPGVGKSTLLLQVCASAAARGVSCAYISGEEAVEQIRGRADRMGLAKANVSLAAETALRDILDGLKRDNFDLVVIDSIQTMWSDAHEAGPGTVTQVRACATELVRLAKKKGVAILLVGHVTKDGQIAGPRVVEHLVDAVLSFEGERGYPFRILRGAKNRFGATDEIGVFEMGDVGLREVKNPSALFLNEGGERAAGAAVFAGIEGSRPVLVEFQALVAPSAYGTPRRAVVGWDSGRLAMVLAVLEARCGLGFGDKDVYLNVAGGLRITEPAADLAAAAALASSALDVALPQDCVVFGELSLSGEVRPVSRMETRLKEAAKLGFGRALGPLAGLPEGGGALPVAGVARLTDAVRRIGDEIWTSLTLEHHHHHH	not soluble
AHHHHHHGSVDMSKVKLRIENIVASVDLFAQLDLEKVLDLCPNSKYNPEEFPGIICHLDDPKVALLIFSSGKLVVTGAKSVQDIERAVAKLAQKLKSIGVKFKRAPQIDVQNMVFSGDIGREFNLDVVALTLPNCEYEPEQFPGVIYRVKEPKSVILLFSSGKIVCSGAKSEADAWEAVRKLLRELDKYGLLEEEEEEL	soluble
MSFSENRRIALVTLVVDNYDRAKAFYCDVLGFECLSDKPLDDGKRWVVVKPQGAEGGALLLAEADGEQQRLAIGNQTGGRVGFFLHTDDFARDYETMIARGVHFLEEPRHEVYGSVAVFADPYGNRWDLLQPRG	not soluble
MIRNKAFVVRLYPNAAQTELINRTLGSARFVYNHFLARRIAAYKESGKGLTYGQTSSELTLLKQAEETSWLSEVDKFALQNSLKNLETAYKNFFRTVKQSGKKVGFPRFRKKRTGESYRTQFTNNNIQIGEGRLKLPKLGWVKTKGQQDIQGKILNVTVRRIHEGHYEASVLCEVEIPYLPAAPKFAAGVDVGIKDFAIVTDGVRFKHEQNPKYYRSTLKRLRKAQQTLSRRKKGSARYGKAKTKLARIHKRIVNKRQDFLHKLTTSLVREYEIIGTEHLKPDNMRKNRRLALSISDAGWGEFIRQLEYKAAWYGRLVSKVSPYFPSSQLCHDCGFKNPEVKNLAVRTWTCPNCGETHDRDENAALNIRREALVAAGISDTLNAHGGYVRPASAGNGLRSENHATLVVLEHHHHHH	soluble
MREIVTIQVGEFANFVGSHFWNFQDELLGLASDPESDPIFRNHNLDMDVLYRSGETQQGVATYTPRLVSVNLKGALGTMSSRGTLYNEGSSSRSDSSATWFGDVDTQRSEPRKRNLFLQSLYEEEHVVGKEKAKEIEDKDIVGCLDEEVECWTDFSKSHYHPQSLYELNGLWMDSQAFNNYGIGKDVFSEASRGEEICDRLRFFVEECDHIQGIKFLVDDSGGFSAVAADFLENMADEYTNVPVLLYSVRTPMSQMSSKKTVSNKLHDAISFSRLSSFCKLFTPIGLPSLTGSKASKFLNLGDEKPYRSSAVYAAALHSSTIPFRMQPTSSDSSEVSNSMDVNTLVQLLTGRGRQNIVAILDSAMPAPTLAGKQLENTLLTSLQALTPEVTEDVEDNQAVESMCILGALRSEDKEALVSEVKNAVDASYEQATTKGKPLFCNLSVSRCPLPVPLPFPSIFGNLVGRKGEILSSPVSDSLYRGSLDVHSIPVATRWRSSSAILPFLETRMGNLEKLGIQWGAMGSDVVRAWGFGREELQEMRENLSKMVSELNPQFFESSDSD	soluble
MGSDKIHHHHHHMENKSAVQLYLELLKKTILFEIWLEYEPYLPASLHISKELSYEPVTVPLPLFLKQYVENHNLKIVNPNVSNNERQGGKDWPRAAHSMVGRKRMNQLQEAMETVVRENIEGDFIETGVWRGGSCIFMNGFLQANNIYYRTVWVADSFEGLPAPNLEQYPKDYGDYLHTFDYLRVSLETVQENFRKYDLLNDQVKFLKGWFKDTLPSAPVEKIAIARLDGDMYESTMDSLVNLYDKVSTGGFIIIDDYGLITCAEAVTDFRSERNIKTPMTQIDDFGIYWRKE	not soluble
MGSDKIHHHHHHMKIKIGKVEKRLNQIIEEEGAVYLTLLDPEEENIEEIAENVKDYADAIMVGGSIGIVNLDETVKKIKKITKLPIILFPGNVDGLSRYADAVFYMSLMNSANTYWVVTAPTLGAITILKYNLEPIPMAYLCIEPAKKTAVGYVGEIREIPQNKPKITAMYCLSAKFFGMRWAYLEAGSGASYPVNNETIALSKKLSGINIIVGGGIRKPEIAYEKVLAGADAIVTGNLLEENPKAVEMMYDAIKKAGKEKLKNK	not soluble
MKQFNLIATSGQGIEALVAKELNNLGYQTRTENGFVRFSGNQRDILKTNIWLRTADRIKILVGEFHTLRFDDLFESVKALPWSELINWDDQFPVMEAHSRDSQLFSVPDIQRITKKAIVEALRSQTGHEDLPETGKHVGIDIRIDKNNVRIMIDTSGESLFKRGYRTEHGGAPLKENFAAALVLLTNWFTDNPFVDPVCGSGTIPIEAALIGKNIAPGINRTFEIESWAWFDKKLSQDVREEADILAKYDQPLDISGYDIDGNMIRISKENAKKAGLYNDIAFKQLAVKDWQTDKINGILVANPPYGQRLGEIEDARQIYQQMGSIYNQMSTWSKYILTSDEKFEQFYGKKATKKRKLYNGPIRTDLYQYWGKKVR	not soluble
MGHHHHHHSHMEGMDVDLDPELMQKFSCLGTTDKDVLISEFQRLLGFQLNPAGCAFFLDMTNWSLQAAIGAYYDFESPNISVPSMSFVEDVTIGEGESIPPDTQFVKTWRIQNSDVIWVILSVEVGGLLGVTQQLSSFETEFNTQPHRKVEGNFNPFASPQKNRQSDENNLKDPGGSEFDSISKNTWAPAPDTWAPAPDQTEQDQNRLSQNSVNLSPSSHANNLSVVTYSKGLHGPYPFGQS	soluble
MNIHEYQGKAVLRSYGVSVPNGKVAFTVEEAVEAAKELGTDVCVVKAQIHAGGRGKAGGVKVAKNLDEVRTYAESILGTTLVTHQTGPEGKEVKRLLIEEGCDIKKEYYVGLVLDRATSQVVLMASEEGGTEIEEVAEKTPEKIFKEYIDPAVGLQGFQARRIAFNINIPKELVGQAVKFMMGLYRAFIEKDCSIAEINPLVTTGDGKVMALDAKLNFDSNALYRHKDILELRDLDEEDAKEIEASKYDLNYIPLDGNIGCMVNGAGLAMATMDIIKHYHGDPANFLDVGGGATAEKVTEAFKIILSDKNVKGIFVNIFGGIMKCDVIAEGVIEATKQVGLELPLVVRLEGTNVELGKKILNESGLNIVAAESMTDGAQKIVSLVG	not soluble
MMHQLYPQVAHHYRYELNKDMHIAAAHFIPHEAAGSCANVHGHTYIVNVTIAGDELDESGFLVNFQTLKQLVHRKLDHTLLNDHSDWFDGHDPNRFPTSEVVARTIYETIQRYLDTLPHKPKCLQVFVRETPTSYVVYRPKAGER	soluble
MIDDLLNFFNSFNVVKNYKLINQLKNEVDTLKSRLDIPRELLDGFYADRNSREYREVYEKDAPLVTVCIGTYNRGKLLVERSVRSVLEQSYGNIELIVVGDCCTDDTPRLVQGITDPRFRFINLPERGNYPENPLHRWCVAGTVPFNYALSQARGDFITHLDDDDEFVPDRIEKLVKFIQREKADLVWHPFWYERSNGRWAMRKAQEFSGGKVTTSSIFYHRWFTAVPWDIEAYRYQEPGDWNRLRKIKYLGARVARYPEPLLRHYCERNQESLSSRTIQTRNTKLEHHHHHH	not soluble
IKDFDYNIGFNMSTTKNKVVELSDADQVLQGEGLKYGTEHFPTETRVGKPIGAFYLYRTDGIFQSMDEVNAHVNKDGQLLQPNAQPGDIRFKDLDGNGSIDAGDKEYCGSGIPTLEANLNLSFGYKGFDLSIVLGSAWNFKLYNGNKYFYEGMNSKSNMLKSTLNAWTPDNRNTDVPRAVYQDPNGNMKESDRFLENGDFVRLRQAQLGYTLPKSLMQKFYIEKLRFYVSGENLFTITGYDGIDPEFSRASVLNTGVDKLIYPFTRSFTVGAQLTF	not soluble
MSLKYDWILFDADETLFHFDAFKGMQLMFARKGVEFTEQDFHQYQEVNKPLWVDYQNGDITAAQLKHTRFAGWAEKLNTTTDELNSAFLQAMADICTLLPGAMELMQALQGKARLGIITNGFTELQDVRLAKTGMTDFFDQIVISEEVGIAKPDAGIFAHALERMGNPTKSRVLMVGDNPHSDILGGLNFGIETCWLNVHQHPKPDGITPHYEVTSLHELREILLAEGHHHHHH	soluble
MGSDKIHHHHHHMKTLIKNVHILTMDEQFSEIKAGYLVIEEDTIVELAPMTTLDEKRMAANQVIDGQNGILMPGMINTHTHVGMIPFRSLGDDVPDRLRRFLFPLEQFMTKELVGCSSDYAIAEMLLSGITSFCDMYYFEDEIAKSCEKMSVRALLGETIIDMPTCDSPEPSGGLFYAETFIRKWQGHPLITPMLAPHAPNTNSPEVLAKIIELSRQYQVPVTMHVAEMTYEMAEFEKAYQKTPIAFLEELGYLSEPFILAHCILATDEDLASLAATNGKARVAHCIGANTKSAKGVAPIKQMLDQGIIVGLGTDGPSSGNTLDLFTQMRMVANFHKTAHQDRSLFPAKEIVYLATMGGAKTLGLAEQVGSLEVDKKADITLIETQSVNMFPIFDAYSALVYSANASNVEAVWVNGQQLVANKELQQANLKEIKEKLYQAMNTFVKEAKKRAAL	not soluble
